From patent publication US20040038217

What was measured:
[1] = test system: PNA-Caspase 3 dual-labeled peptide chimera: PNA-Linker-Cys His His His His His His Asp Glu Val Asp Ala Lys-(C18-spacer)-Cy3
[2] = test system: biotinylated Caspase 3 peptide substrate with end-labeled fluorescent dye Cy5

## Caspase 3
[1]
  fluorescent Cy3/Cy5 signal ratio (Caspase 3 at 0 to 4 ng/µl): the fluorescent Cy3/Cy5 signal ratio decreases from approximately 1 to 0.6
PNA-peptide chimera III
  percentage of the residual assay intensity ratio relative to the negative control: 112.03%
PNA-peptide chimera II
  percentage of the residual assay intensity ratio relative to the negative control: 82.35%
PNA-peptide chimera I
  percentage of the residual assay intensity ratio relative to the negative control: 53.48%
[2]
  Cy5 signal intensity at 1000 ms integration of uncut substrate (Caspase 3 at 8 to 0 microgram/ml): The Cy5 signal intensity at 1000 ms integration increased from about 2600 to 5200 units for a decreasing Caspase 3 concentration ranging from 8 to 0 microgram/ml

## Caspase 6
PNA-peptide chimera III
  percentage of the residual assay intensity ratio relative to the negative control: 79.08%
PNA-peptide chimera II
  percentage of the residual assay intensity ratio relative to the negative control: 41.18%
PNA-peptide chimera I
  percentage of the residual assay intensity ratio relative to the negative control: 91.80%

## Caspase 8
PNA-peptide chimera III
  percentage of the residual assay intensity ratio relative to the negative control: 59.89%
PNA-peptide chimera II
  percentage of the residual assay intensity ratio relative to the negative control: 69.41%
PNA-peptide chimera I
  percentage of the residual assay intensity ratio relative to the negative control: 73.77%
